Results as given in paper PMC4512291 (Angewandte Chemie (International Ed. in English), 2015).

Molecular target: HPV16 E6 (GPCA fusion) (HPV16, UniProt P03126 1-158)
Assay: split reporter

B1: PDZ-LxxLL chimera fused to a Gaussia princeps luciferase fragment (GPCA) (designed binder)
chain: GKPFFTRNPSELKGKFIHTKLRKSSRGFGFTVVGGDEPDEFLQIKSLVLDGPAALDGKMETGDVIVSVNDTCVLGHTHAQVVKIFQSIPIGASVDLELCRGYPLPFDPDDPNTSLVTSVAILDKEPAAAELTLQELLGEER
- fold increase of the GPCA binding signal over that with LxxLL: 75 fold
- fold increase of the GPCA binding signal over that with PDZ: 25 fold
